Source: the supplement of paper PMC9170038

Tests used:
MS2 coat protein [1] = assay: apparent KD of MS2 coat protein, switch ON state; designed switch direction (-1 OFF switch, 1 ON switch): -1; higher = weaker reporter binding; conditions: FMN input: 0 or 200 uM; Eterna round: R93 (includes R88 designs)
How it was run: (§1)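 Apparent KD stands for the median, per design, of fits to normalised cluster binding curves. The curves came from titrating on-chip-transcribed RNA switches on Illumina sequencing clusters with SNAP-549-labelled MS2 coat protein, twofold from 0.7 or 1.5 nM to 3 µM. Buffer was 100 mM Tris-HCl pH 7.5, 80 mM KCl, 4 mM MgCl2, without or with constant ligand.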

MS2 coat protein [2] = assay: apparent KD of MS2 coat protein, switch OFF state (with FMN for OFF switches, without FMN for ON switches); designed switch direction (-1 OFF switch, 1 ON switch): -1; higher = weaker reporter binding; conditions: FMN input: 0 or 200 uM; Eterna round: R93 (includes R88 designs)
How it was run: as §1

Row | Sequence | apparent KD of MS2 coat protein (MS2 coat protein [1]) [nM] | apparent KD of MS2 coat protein (MS2 coat protein [2]) [nM]
1 | AUAGUACAUGAGGAUCACCCAUGUCAGGAUAUUGGAUAUGACAAAAAAAAAAAGUUAACGAGAAGGGACUAUAA [EX1 Malc#15] | 31.2 | 36.6
2 | AAAAAGGGAGGAUAUACAACACAGACAGAACAACAAACACAACAUGAGGAUCACCCAUGUAGAAGGCCCAAAAA [Default title] | 28.2 | 35.4
3 | GGAACACAUGAGGAUCACCCAUGUCAGGAUAUGUAGAUAAAAAGAAAAUAAAAUAAAAACAGAAGGGACAAAAG [May 3] | 76 | 73.3
4 | AACAGUACAGGAUAUACAUGAGGAUCACCCAUGUGGGUGUUAAGUGGCGUACCACAAAGUAGAAGGGUACUGGA [JL In the Red CG] | 327 | 106
5 | AAAAAGUAAGGAUAUAGCAAAGGUCACGAAAGUGACAAAGGCUAGAAGGUACAUGAGGAUCACCCAUGUCCAAG [Mat - Exclusion 4 - Eli mod - D100] | 30.8 | 16.6
6 | CUCUUGUAAGGAUAUCACCACACAAAAAAAAAAAAGUGUGGUGAGAAGGUACAUGAGGAUCACCCAUGUACUAA [Banishment 12 - Jieux - Exclusion 4] | 23.6 | 25.2
7 | AAAUUGUCAGGAUAUCGUAGAACAGGGAAAACCUGGAGCUACGAGAAGGGACAUGAGGAUCACCCAUGUAAAAC [May 93] | 62.7 | 71.1
8 | AACUAGUCAGGAUAUACGAACAUGUCAAAAGACGUGAAGGGACAUGAGGAUCACCCAUGUAGAAGGGACUAGCA [74%, Web mod - With 1 less G's] | 47.1 | 147
9 | AAAAAGCGAGGAUAUACAUGAGGAUCACCCAUGUCAAAAGAAUAUAAAGAAAUAGGAAGUAGAAGGCGCAAAAA [Ex 3 #3] | 67.1 | 56.4
10 | AAAAAACAUGAGGAUCACCCAUGUAAGGAUAUGCAAAAAAUGGGUAAAAGGGUAAAAAGCAGAAGGUACAAAAA [scarecrow1] | 156 | 92.1
11 | CGCAAGUCAGGAUAUUCGACAAGUAAAUCAGUAGAUCAAAAGAAGAAGGGACAUGAGGAUCACCCAUGUAAAUA [JR_Exc004_Sub403] | 40 | 26
12 | AAAAAACAUGAGGAUCACCCAUGUGAGGAUAUGCUAAAAAAAAUAAAAAUAAAACAUAGCAGAAGGCACACCAA [Amethyst 57] | 28.2 | 38.4
13 | AAUACACAUGAGGAUCACCCAUGUAAGGAUAUCGAAAAAAAAAUAAACAAAAAACAAACGAGAAGGUACAAAAA [Exclusion 1 design 3] | 33.2 | 33.6
14 | AAAAAACAUGAGGAUCACCCAUGUAAGGAUAUGCUGGUGCGAAAGCACAAAAAAAACAGCAGAAGGUACAAAAA [66%, Wbt, 37] | 17.4 | 27.5
15 | AAAAAGGAAGGAUAUACAUGAGGAUCACCCAUGUAAAAAAAAAAAAAGGGAAAAAAAAGUAGAAGGUCCAAAAA [Montuemsaf Djedankhre] | 33 | 40.9
16 | CUCUUGUCAGGAUAUGAAAGAAAAGAAAAGAAAGAAAAGAAUCAGAAGGGACAUGAGGAUCACCCAUGUAAGAA [EteRNA is fun!] | 64 | 76.9
17 | AAGACUACAGGAUAUACAUGAGGAUCACCCAUGUAACUGACGGAUAGAUGACGGAGAAGUAGAAGGGUAGUCCA [Ruby 39] | 36.9 | 46.9
18 | AGAAUACAUGAGGAUCACCCAUGUGAGGAUAUGUAGAUAAAAAUAAAAUAAAAUAAAUACAGAAGGCACAAAAG [EX 1 May 19] | 61.3 | 59.7
19 | AGAAAACAUGAGGAUCACCCAUGUGAGGAUAUGCGAAUAAAGAAACAAAUAAAAGAAAGCAGAAGGCACAACAA [Ex 1 Tesla 4] | 31.9 | 36
20 | AAAAAGUGAGGAUAUACAUGAGGAUCACCCAUGUGUAUAAAAAAUUACACAAAAGAAAGUAGAAGGCACUAAAG [Mat - Exclusion 3 - Mayanna mod - D112] | 17 | 30.8
21 | AAAAAGAUAGGAUAUACGAACAUGUCAAAAGACGUGAAGGGACAUGAGGAUCACCCAUGUAGAAGGGUUAAAAA [JL Wide Open 38] | 155 | 66.6
22 | AAAGUACGAGGAUAUACAUAGAUACAGAUACAUGUAGACGUACAUGAGGAUCACCCAUGUAGAAGGCGUACAAG [Mat - Same state - Mayanna Mod - D116] | 172 | 327
23 | AAAAAGGGAGGAUAUACAUGAGGAUCACCCAUGUAGCAGACGAAAAAGAGUCUGUAAUGUAGAAGGCCCAAAAA [65%, Moding Exclusion3-cac2, 4] | 16.2 | 32.2

Row | Sequence | apparent KD of MS2 coat protein (MS2 coat protein [1]) [nM] | apparent KD of MS2 coat protein (MS2 coat protein [2]) [nM]
24 | AAAAUGUCAGGAUAUGCGAAGGCGUCUGACAGACGAGGAUUGCAGAAGGGACAUGAGGAUCACCCAUGUAAAAA [A Change in Energy (MS2 Riboswitch - Exclusion 4)] | 84.3 | 131
25 | AAAAAGGCAGGAUAUACGAGUCAAAGAAAAGACAAAAGGAGACAUGAGGAUCACCCAUGUAGAAGGGCCAAAAA [Fiskers exclusion D2 62% 5] | 36.8 | 48.8
26 | AACAGUACAGGAUAUACAUGAGGAUCACCCAUGUGACAAUUAAGUGGCGUACCACAGUGUAGAAGGGUACUGGA [Ruby 84] | 93.1 | 113
27 | AAGAAGUCAGGAUAUACAUGAGGAUCACCCAUGUAAAAGAAAGAAAAGGGAAAGAAAAGUAGAAGGGACAAGAA [Menkheperre Thutmose III] | 22.5 | 208
28 | GCUUGGCAAGGAUAUACAUGAGGAUCACCCAUGUGAGAGAAAAAAGUGAGAAAGAAAAGUAGAAGGUGUUGAGG [salish99-ex3-76] | 44.4 | 48.9
29 | UCCUCACAUGAGGAUCACCCAUGUUAGGAUAUGCCCGGCGGGUUCUGACCUGCCUAAAGCAGAAGGAACGUGCG [Cexequge] | 16.6 | 70.1
30 | AACACACAUGAGGAUCACCCAUGUCAGGAUAUGCCGGGUUAGAGCCAACUGAAAAACCGUAGAAGGGACGAAAA [Bilbo Confounded 9 - Jieux - Exclusion 1] | 66.9 | 61.6
31 | GGUUGGCGAGGAUAUACAUGAGGAUCACCCAUGUGAGAGAAAAAAGAGAGAAAGAAAAGUAGAAGGCGCUGACG [salish99-ex3-52] | 47.9 | 97.8
32 | AAGAAGUCAGGAUAUGCCAAAGAUCACGAAAGUGACAAAGGGCAGAAGGGACAUGAGGAUCACCCAUGUAAAGA [Opal 3] | 54.7 | 62.4
33 | AAAAAUGGAGGAUAUACAUGAGGAUCACCCAUGUUAGACCUAAAAAAAGGGAAAGAAAGUAGAAGGCCAUAAAA [Ex 3 May 29] | 17.5 | 20.6
34 | GGAAAACAUGAGGAUCACCCAUGUGAGGAUAUCGAUGUCCAAAAAAAAGUGCGGGACUCGAGAAGGCACUUGGC [salish99-ex1-33] | 51.5 | 34.3
35 | AUAGUACAUGAGGAUCACCCAUGUCAGGAUAUUCGAAAUGAAAAAAAAAAAAAGUGAAGGAGAAGGGACUAUAA [EX1 Malc#12] | 21.5 | 20.1
36 | UAUAUACAUGAGGAUCACCCAUGUCAGGAUAUGCGCCCAGAAUAUACAUAUGAUACAAGCAGAAGGGACACUAA [JR_Exc001_Sub205] | 55.3 | 49.3
37 | AGUGAGUCAGGAUAUGACUGAAGAAUAAAAGAAAUAACAAGUCAGAAGGGACAUGAGGAUCACCCAUGUACACA [May 59] | 30.9 | 20.7
38 | CUCUUGUGAGGAUAUGUAAGAAAAGAAGAGAAAGAAAAGAAACAGAAGGCACAUGAGGAUCACCCAUGUAAGAA [EteRNA is fun!] | 52.8 | 146
39 | AGUUGGCGAGGAUAUACAUGAGGAUCACCCAUGUGAAAUCGCGAAAAAAUAGGGAAAAGUAGAAGGCGCUGACA [73%, Moding Norbert Elias, 18] | 11 | 21
40 | AAGAAGCUAGGAUAUACUAACGAAACUAAUGCAUAGAUAAAACAUGAGGAUCACCCAUGUAGAAGGAGCAGAAU [JR_Exc002_Sub014] | 21.6 | 20.6
41 | AAAAAGUUAGGAUAUACAUGAGGAUCACCCAUGUACAUAUAUGGAGAAAAAAACAGUAGUAGAAGGGACAAAAA [EX2 Malc#12] | 20.6 | 19.8
42 | AAAAGGUCAGGAUAUGCCCGCCGGGUGGGAAGGCCGGGUGGGUAGAAGGGACAUGAGGAUCACCCAUGUAAAAA [Opal 42] | 52.4 | 47.9
43 | ACCAAUGGAGGAUAUACAUGAGGAUCACCCAUGUUUAUCCUACAUAGGUGAAAAACAUGUAGAAGGCCAUAGGA [EX3 237: Super Stable 37] | 11.1 | 12
44 | AAAAAACAUGAGGAUCACCCAUGUAAGGAUAUCUAAAAUAAAAGAAAAAUAAAGAAAAGGAGAAGGUACAUGGA [JL wbt mod 22] | 22.9 | 15.6
45 | AAAAAAGGAGGAUAUACGAACAUGUCGAAAGACGUGAAGGGACAUGAGGAUCACCCAUGUAGAAGGCUUAAAAA [Mat - Exclusion 2 - JL mod - D69] | 37 | 23.9
